Values joined by “and” are separate entries in the source; they are usually repeats but may differ in a detail not shown here. Equal values may be shown once. Values belong to the molecule of their own block, whether it stands above or below them.
Experiments:
[1] = target: GH2 β-galactosidase from Alkalilactibacillus ikkensis (AiLac), wild type (Alkalilactibacillus ikkensis); assay: SAXS; second peak of the SEC purification, 1.15 mg/mL, buffer A, 20°C, 1800 s; mass from I(0)
[2] = target: GH2 β-galactosidase from Alkalilactibacillus ikkensis (AiLac), wild type (Alkalilactibacillus ikkensis); assay: SEC-MALS; Superdex 200 10/300 GL Increase, buffer A (PBS + 0.1 mM MgCl2, pH 7.0), room temperature, 0.5 mL/min, 50 μL of 1.5 mg/mL Ni-NTA purified protein loaded
[3] = target: GH2 β-galactosidase from Alkalilactibacillus ikkensis (AiLac), wild type (Alkalilactibacillus ikkensis); assay: DSF (melting temperature against protein concentration); apparent; SEC-purified AiLac at 3.9 μg/mL to 4 mg/mL, 0.5°C/min, buffer A; tm fitted to the monomer-dimer equation (5); dimer to monomers
[4] = target: GH2 β-galactosidase from Alkalilactibacillus ikkensis (AiLac), wild type (Alkalilactibacillus ikkensis); assay: flow-induced dispersion analysis (FIDA); 125 nM (WT) or 60 nM (TM) Alexa Fluor 488-labelled protein as indicator, pre-mixed with unlabelled protein of the same kind, 4 h at 4°C, buffer A; Rh fitted to a monomer-dimer model; constant of dimer to monomers
[5] = target: GH2 β-galactosidase from Alkalilactibacillus ikkensis (AiLac), wild type (Alkalilactibacillus ikkensis); assay: SAXS; 0.40 mg/mL AiLac in 50 mM bis-tris propane, pH 7.0-8.0, 20°C; mass from I(0)
[6] = target: GH2 β-galactosidase from Alkalilactibacillus ikkensis (AiLac), wild type (Alkalilactibacillus ikkensis); assay: flow-induced dispersion analysis (FIDA); 125 nM (WT) or 60 nM (TM) Alexa Fluor 488-labelled protein as indicator, pre-mixed with unlabelled protein of the same kind, 4 h at 4°C, buffer A; Rh fitted to a monomer-dimer model; constant of dimer to monomers; remark: listed apart in the source
[7] = target: AiLac triple mutant (V648E, F702L, T742V) (Alkalilactibacillus ikkensis); assay: mass photometry; TwoMP mass photometer, 21°C; 0.25 μL of a 1 mg/mL (8.4 μM) stock added to 19.75 μL buffer, about 100 nM final
[8] = target: AiLac triple mutant (V648E, F702L, T742V) (Alkalilactibacillus ikkensis); assay: flow-induced dispersion analysis (FIDA); 125 nM (WT) or 60 nM (TM) Alexa Fluor 488-labelled protein as indicator, pre-mixed with unlabelled protein of the same kind, 4 h at 4°C, buffer A; Rh fitted to a monomer-dimer model; constant of dimer to monomers
[9] = target: T1, EcLac (Escherichia coli, UniProt P00722); assay: ONPG hydrolysis, absorbance […] nm; assay type: biochemical; details: PBS pH 7.0, 0.1 mM MgCl2, 5 mM ONPG, 8 nM enzyme; temperature series
T1 construct: gene lacZ; commercial enzyme purchased from Sigma, lyophilized; homotetramer
T1 sequence (P00722 whole entry): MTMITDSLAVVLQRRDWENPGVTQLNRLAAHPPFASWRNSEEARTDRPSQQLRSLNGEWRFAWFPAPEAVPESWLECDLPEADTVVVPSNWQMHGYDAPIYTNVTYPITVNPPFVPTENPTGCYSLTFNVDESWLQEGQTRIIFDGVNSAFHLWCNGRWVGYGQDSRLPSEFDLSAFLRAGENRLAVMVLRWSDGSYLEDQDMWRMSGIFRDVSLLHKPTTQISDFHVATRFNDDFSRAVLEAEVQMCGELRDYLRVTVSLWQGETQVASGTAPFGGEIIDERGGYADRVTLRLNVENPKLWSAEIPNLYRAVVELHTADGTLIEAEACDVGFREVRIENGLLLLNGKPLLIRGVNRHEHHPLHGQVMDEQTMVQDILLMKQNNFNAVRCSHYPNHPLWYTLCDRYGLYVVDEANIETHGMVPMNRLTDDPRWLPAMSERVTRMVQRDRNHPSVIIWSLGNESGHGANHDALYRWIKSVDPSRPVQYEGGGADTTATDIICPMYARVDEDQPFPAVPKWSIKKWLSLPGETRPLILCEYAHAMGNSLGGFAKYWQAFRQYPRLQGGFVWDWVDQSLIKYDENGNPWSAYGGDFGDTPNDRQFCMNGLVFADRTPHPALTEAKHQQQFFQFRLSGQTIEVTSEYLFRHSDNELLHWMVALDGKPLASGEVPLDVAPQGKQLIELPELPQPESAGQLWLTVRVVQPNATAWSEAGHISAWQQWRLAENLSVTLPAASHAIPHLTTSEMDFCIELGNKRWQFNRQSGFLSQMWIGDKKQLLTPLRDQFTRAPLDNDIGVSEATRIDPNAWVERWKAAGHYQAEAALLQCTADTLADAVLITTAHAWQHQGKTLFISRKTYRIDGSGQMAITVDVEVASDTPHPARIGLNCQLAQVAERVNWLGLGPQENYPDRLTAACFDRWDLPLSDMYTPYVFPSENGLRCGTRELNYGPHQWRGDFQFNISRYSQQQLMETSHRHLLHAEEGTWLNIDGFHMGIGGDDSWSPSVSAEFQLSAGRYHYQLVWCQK

stoichiometry N [1]: 1.7 monomers
stoichiometry N [2]: 4 and 2
Kd [3]: 150 nM
Kd [4]: 300 nM
stoichiometry N [5]: 2
Kd [6]: 230 nM
stoichiometry N [6]: 2
Molecule: GH2 β-galactosidase from Alkalilactibacillus ikkensis (AiLac), wild type (enzyme)

stoichiometry N [7]: 4
stoichiometry N [8]: 2 and 4
Molecule: AiLac triple mutant (V648E, F702L, T742V) (enzyme)

Molecule: O=[N+]([O-])c1ccccc1O[C@@H]1O[C@H](CO)[C@H](O)[C@H](O)[C@H]1O [ONPG]
specific activity [9]: Activity of the AiLac and EcLac (purchased from Sigma) was assessed by hydrolysis of ONPG

Reference: PMC12023411, “Quaternary stabilization of a GH2 β‐galactosidase from the psychrophile A. ikkensis, a flexible and unstable dimeric enzyme” (Protein Science : A Publication of the Protein Society, 2025)
